From CN113150127A come the findings set out here.

The experiment deals with HBV表面抗原蛋白 (HBsAg) (Hepatitis B virus). Put plainly: SPR (Biacore 3000), antibody captured through AHC on a CM5 chip, HBsAg as analyte from 40 nM to 0 nM in 2-fold dilutions. A general note: Surface plasmon resonance follows binding to a sensor surface in real time, without labels.

B1: 抗HBsAg单克隆抗体5G7-2 (antibody, V domains shown)
VH: EVQLQQSGPELVKPGASVKIYCKASGYTFTNARSTWVKQSHGKSLEWIGWINFKINNDGSATPFKGKATLTVDKSSSTAYMELRSLTSEDSAVYYCSRAGRFKLMDWGQGTLVTVSA
VL: DIVMTQSPASLAMSLGKRATISCGGCARTPLLWICNGKWYQQKPGQPPKLLIYLASNKFGGVPARFSGSGSGADFTLTIDPVEGDDVALYYCQQDWNTIYTFGGGTKMEIK
Molecule B1 yielded an equilibrium dissociation constant (Kd) of 6.12 nM.

A word on the Kd: it is a measure of binding affinity in units of concentration.
